{"source": "paper PMC5785730", "about": "“Assays of D-Amino Acid Oxidase Activity” (Frontiers in Molecular Biosciences, 2018)", "proteins": {"B1": {"name": "RgDAAO (D-amino acid oxidase from Rhodotorula gracilis) (Rhodotorula toruloides) (protein)", "chain": "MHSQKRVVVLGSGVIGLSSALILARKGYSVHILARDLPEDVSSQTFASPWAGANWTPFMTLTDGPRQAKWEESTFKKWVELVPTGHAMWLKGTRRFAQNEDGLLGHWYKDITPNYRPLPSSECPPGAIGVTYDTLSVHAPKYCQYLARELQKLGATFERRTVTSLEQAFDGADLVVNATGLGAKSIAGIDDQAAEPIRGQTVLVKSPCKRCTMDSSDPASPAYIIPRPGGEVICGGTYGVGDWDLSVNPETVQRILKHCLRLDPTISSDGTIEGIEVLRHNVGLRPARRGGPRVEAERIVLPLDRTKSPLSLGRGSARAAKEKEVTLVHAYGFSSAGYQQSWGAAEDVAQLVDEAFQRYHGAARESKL", "notes": "recombinant wild-type RgDAAO"}}, "details_in_all_cases": "FAD", "key": {"purified protein [1]": {"substrate": "C[C@@H](N)C(=O)O", "assay": "purified protein"}, "purified protein [2]": {"substrate": "N[C@H](CCC(=O)O)C(=O)O", "assay": "purified protein"}, "[3]": {"substrate": "NCCCC[C@@H](N)C(=O)O", "assay": "steady-state kinetics, oxygen consumption assay (Km)", "format": "biochemical, Rhodotorula toruloides"}}, "data": [{"protein": "B1", "values": [{"measurement": "Km", "setting": "purified protein [1]", "value": "1.3 ± 0.2", "unit": "mM"}, {"measurement": "Vmax", "setting": "purified protein [1]", "value": 100, "unit": "µmol/min/mg"}, {"measurement": "Km", "setting": "purified protein [2]", "value": "76.4 ± 6.4", "unit": "mM"}, {"measurement": "Vmax", "setting": "purified protein [2]", "value": 1.7, "unit": "µmol/min/mg"}, {"measurement": "Km", "setting": "[3]", "value": "14.6 ± 1.4", "unit": "mM"}, {"measurement": "Vmax", "setting": "[3]", "value": 16.4, "unit": "µmol/min/mg"}]}]}
